Laboratory results taken from patent US20100003195A1 (published 2010).
Bridge positions count the residues as written; N and C are the ends. Primed or numbered codes have the meaning given here. Ends that are not written are not given here. I, II: the chains in the order shown. * marks the point of attachment. ivDde′ = (4,4-dimethyl-2,6-dioxocyclohex-1-ylidene)-3-methylbutyl protecting group, CC(C)CC(=C1C(=O)CC(C)(C)CC1=O)*

Tests used:
[1] = target: T1, human KDR-Fc chimeric fusion (R&D Systems #357-KD-05) (human, UniProt P35968 20-764); assay: BIAcore steady state, KDAV, KDR-Fc at 1600 RU
T1 construct: bought; also called KDR Fc fusion
Method: (§1) All samples were injected in duplicate. […] Following a 10 minute dissociation, any remaining peptide was stripped from the KDR surface with a quickinject of 50 mM NaOH+1 M NaCl for 12 s at 75 μL/min. Sensorgrams were analyzed using BIAevaluation software 3.1 and a hyperbolic double rectangular regression equation in SigmaPlot 6.0.

[2] = target: T1, human KDR-Fc chimeric fusion (R&D …); assay: BIAcore steady state, KDAV, KDR-Fc at 3000 RU
Method: as §1

[3] = target: T1, human KDR-Fc chimeric fusion (R&D …); assay: BIAcore steady state, KDAV, KDR-Fc at 6000 RU
Method: as §1

[4] = target: T1, human KDR-Fc chimeric fusion (R&D …); assay: BIAcore steady state, KD1, KDR-Fc at 3000 RU
Method: as §1

[5] = target: T1, human KDR-Fc chimeric fusion (R&D …); assay: BIAcore steady state, KD1, KDR-Fc at 6000 RU
Method: as §1

[6] = target: T1, human KDR-Fc chimeric fusion (R&D …); assay: BIAcore steady state at the higher immobilization densities
Method: as §1

[7] = target: T1, human KDR-Fc chimeric fusion (R&D …); assay: BIAcore steady state, KD1, KDR-Fc at 1600 RU
Method: as §1

KDR on HUVECs [8] = target: T2, KDR on HUVECs (human, UniProt P35968 20-1356); assay: cell-based or functional assay
KDR on HUVECs [9] = target: T2, KDR on HUVECs; assay: cell-based or functional assay; remark: listed apart in the source
[10] = target: T3, KDR on KDR-transfected 293H cells (human, UniProt P35968 20-1356); assay: radioligand binding, 1-4 µCi/mL, KDR- vs mock-transfected 293H cells
T3 construct: whole, on cells; also called KDR-expressing cells; KDR-transfected cells

[11] = target: T3, KDR on KDR-transfected 293H cells; assay: competitor 125I-VEGF (300 pM), KDR-transfected 293H cells, peptide 30 µM
[12] = target: T3, KDR on KDR-transfected 293H cells; assay: competitor 125I-VEGF (300 pM), KDR-transfected 293H cells, peptide 0.3 µM
[13] = target: T3, KDR on KDR-transfected 293H cells; assay: Tc-labeled dimer on KDR- vs mock-transfected 293H cells

T1 sequence (P35968 20-764, change not shown): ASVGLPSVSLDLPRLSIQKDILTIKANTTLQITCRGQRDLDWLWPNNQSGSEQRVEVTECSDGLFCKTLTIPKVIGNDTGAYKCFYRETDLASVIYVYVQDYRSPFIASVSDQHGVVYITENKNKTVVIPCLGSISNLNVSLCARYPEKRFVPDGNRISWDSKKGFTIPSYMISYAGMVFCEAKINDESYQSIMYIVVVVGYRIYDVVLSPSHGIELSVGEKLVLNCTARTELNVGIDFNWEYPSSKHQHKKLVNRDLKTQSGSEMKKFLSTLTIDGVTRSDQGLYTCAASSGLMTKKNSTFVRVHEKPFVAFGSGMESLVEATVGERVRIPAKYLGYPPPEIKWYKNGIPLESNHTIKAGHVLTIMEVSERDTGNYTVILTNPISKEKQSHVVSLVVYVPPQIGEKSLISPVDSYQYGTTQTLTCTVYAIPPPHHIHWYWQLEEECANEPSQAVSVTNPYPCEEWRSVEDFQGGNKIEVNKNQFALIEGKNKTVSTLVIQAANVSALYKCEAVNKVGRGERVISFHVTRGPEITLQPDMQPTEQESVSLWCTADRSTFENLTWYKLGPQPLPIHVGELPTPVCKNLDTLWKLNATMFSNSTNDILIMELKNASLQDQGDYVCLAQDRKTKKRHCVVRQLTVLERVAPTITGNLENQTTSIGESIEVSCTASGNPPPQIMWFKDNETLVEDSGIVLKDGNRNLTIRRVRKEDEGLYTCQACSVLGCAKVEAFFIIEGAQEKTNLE
T3 sequence (P35968 20-1356): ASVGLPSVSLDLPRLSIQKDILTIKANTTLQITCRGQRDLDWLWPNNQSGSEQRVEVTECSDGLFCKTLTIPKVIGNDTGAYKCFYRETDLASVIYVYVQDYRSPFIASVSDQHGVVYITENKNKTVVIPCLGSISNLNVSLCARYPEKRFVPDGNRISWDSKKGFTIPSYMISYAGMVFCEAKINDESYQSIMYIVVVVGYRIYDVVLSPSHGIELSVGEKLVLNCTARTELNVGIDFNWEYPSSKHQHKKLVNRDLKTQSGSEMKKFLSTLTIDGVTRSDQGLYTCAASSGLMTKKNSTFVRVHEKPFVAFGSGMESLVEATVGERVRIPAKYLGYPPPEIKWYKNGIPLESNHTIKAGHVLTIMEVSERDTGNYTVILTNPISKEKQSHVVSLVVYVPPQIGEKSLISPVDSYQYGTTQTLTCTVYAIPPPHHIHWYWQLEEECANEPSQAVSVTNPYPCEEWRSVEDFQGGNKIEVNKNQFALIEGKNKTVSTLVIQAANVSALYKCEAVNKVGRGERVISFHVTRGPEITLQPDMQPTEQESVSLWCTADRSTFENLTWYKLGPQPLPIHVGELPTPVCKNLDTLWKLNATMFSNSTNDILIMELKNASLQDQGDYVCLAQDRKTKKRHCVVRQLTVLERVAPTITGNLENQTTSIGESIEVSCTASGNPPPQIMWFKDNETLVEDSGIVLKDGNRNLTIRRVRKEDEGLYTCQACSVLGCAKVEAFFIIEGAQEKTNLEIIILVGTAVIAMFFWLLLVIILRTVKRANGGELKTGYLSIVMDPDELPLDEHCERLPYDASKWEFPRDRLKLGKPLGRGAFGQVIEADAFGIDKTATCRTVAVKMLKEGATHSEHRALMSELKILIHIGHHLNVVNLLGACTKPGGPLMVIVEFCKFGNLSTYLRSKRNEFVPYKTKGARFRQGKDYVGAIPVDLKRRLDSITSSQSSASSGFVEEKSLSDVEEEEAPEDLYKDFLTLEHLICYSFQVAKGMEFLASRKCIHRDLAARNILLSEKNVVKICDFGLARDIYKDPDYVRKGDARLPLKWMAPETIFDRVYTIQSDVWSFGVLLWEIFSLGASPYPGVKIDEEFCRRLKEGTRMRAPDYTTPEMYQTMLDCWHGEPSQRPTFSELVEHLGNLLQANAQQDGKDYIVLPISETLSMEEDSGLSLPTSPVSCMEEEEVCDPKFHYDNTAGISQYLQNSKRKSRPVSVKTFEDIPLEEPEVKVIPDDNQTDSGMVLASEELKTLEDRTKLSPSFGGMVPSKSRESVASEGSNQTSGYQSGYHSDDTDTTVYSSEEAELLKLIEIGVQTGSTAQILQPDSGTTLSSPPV
T2 sequence (P35968 20-1356): as above

B1: dimer 6 (D6) (peptide)
peptide 1: GDSRVCWEDSWGGEVCFRYDPGGGK
peptide 2: AGPTWCEDDWYYCWLFGTGGGK
modifications: disulfide I:6-I:16, II:6-II:13 (inferred); also: heterodimer made with glutaric acid bis-NHS ester
notes: heterodimer made with glutaric acid bis-NHS ester
Kd [1]: 1.5 nM
Kd [2]: 0.665 nM
Kd [3]: 0.662 nM
Kd [4]: 25.5 nM
Kd [5]: 17 nM
Kd [6]: ~0.6 nM
Kd [7]: 46 nM
IC50, VEGF-induced HUVEC migration (KDR on HUVECs [8]): ~12.5 nM

B2: dimer 17 (D17) (peptide)
peptide 1: AQDWYYDEILGRGGRGGRGGK
peptide 2: VCWEDSWGGEVCFRYDPGGGK
modifications: not fully specified; N-acetyl; C-terminal Lys(JJ-Glut) amide; N-acetyl; J spacer within the chain
IC50, VEGF-induced HUVEC migration (KDR on HUVECs [8]): ~250 nM

Ac-AQAFPRFGGDDYWIQQYLRYTDGGK-NH2 (also: fluorescein on C-terminal Lys in FP only) [SEQ ID NO:306]
VEGF-induced KDR phosphorylation, HUVEC immunoblot (KDR on HUVECs [9]): ≥ 50 % inhibition at 10 µM

Ac-AQGDYVYWEIIELTGATDHTPPGGK-NH2 (also: fluorescein on C-terminal Lys in FP only) [SEQ ID NO:307]
VEGF-induced KDR phosphorylation, HUVEC immunoblot (KDR on HUVECs [9]): ≥ 50 % inhibition at 10 µM

B3: dimer 25 (D25) (peptide)
peptide 1: Ac-AGPTWCEDDWYYCWLFGTGGGK-NH2
peptide 2: Ac-GDSRVCWEDSWGGEVCFRYDPGGGK-NH2
modifications: disulfide I:6-I:13, II:6-II:16 (inferred); not fully specified (bridges); also: dimer joined by JJ-Glut-Lys linker
IC50, VEGF-induced HUVEC migration (KDR on HUVECs [8]): 5 nM

Ac-GDPDTCTMWGDSGRWYCFPADPGGGK-NH2 (disulfide 6-17 (inferred); also: fluorescein on C-terminal Lys in FP only) [SEQ ID NO:301]
VEGF-induced KDR phosphorylation, HUVEC immunoblot (KDR on HUVECs [9]): ≥ 50 % inhibition at 10 µM

Ac-GDWWECK(ivDde′)REEYRNTTWCAWADPGGGK-NH2 (disulfide 6-17 (inferred)) [SEQ ID NO:366 having a blocked K]
VEGF-induced KDR phosphorylation, HUVEC immunoblot (KDR on HUVECs [9]): ≥ 50 % inhibition at 10 µM

B4: 125I-labeled D5 (peptide)
peptide 1: Ac-VCWEDSWGGEVCFRYDPGGGK-NH2
peptide 2: Ac-AGPTWCEDDWYYCWLFGTGGGK-NH2
modifications: disulfide I:2-I:12, II:6-II:13 (inferred); not fully specified (bridges); also: dimer joined by JJ-glutaryl-Lys linker, 125I Bolton-Hunter label, site not given here
notes: also called dimer 5
binding result [10]: binds

Ac-GDSRVCWEDSWGGEVCFRYDPGGGK-NH2 (disulfide 6-16 (inferred); also: fluorescein on C-terminal Lys in FP only) [SEQ ID NO:294]
% inhibition of 125I-labeled VEGF binding [11]: 96.3%
% inhibition of 125I-labeled VEGF binding [12]: 52.3%
VEGF-induced KDR phosphorylation, HUVEC immunoblot (KDR on HUVECs [9]): ≥ 50 % inhibition at 10 µM

Ac-AQEPEGYAYWEVITLYHEEDGDGGK-NH2 (also: fluorescein on C-terminal Lys in FP only) [SEQ ID NO:305]
VEGF-induced KDR phosphorylation, HUVEC immunoblot (KDR on HUVECs [9]): ≥ 50 % inhibition at 10 µM

AGPTWCEDDWYYCWLFGTGGGK (N-acetyl; C-terminal amide; fluorescein on C-terminal Lys in FP and in Table 15) [SEQ ID NO:277]
% inhibition of 125I-labeled VEGF binding [11]: 104%
% inhibition of 125I-labeled VEGF binding [12]: 81%
IC50, receptor activation assay (KDR on HUVECs [8]): 100 nM

B5: Tc-labeled D18 (scrambled derivative of D10) (peptide)
peptide 1: Ac-APGTWCDYDWEYCWLGTFGGGK-NH2
peptide 2: Ac-GVDFRCEWSDWGEVGCRSPDYGGGK-NH2
modifications: disulfide I:6-I:13, II:6-II:16 (inferred); not fully specified (some residues, bridges); also: 99mTc chelated by PnAO6, J not defined
notes: control; also called dimer 18
binding result [13]: no binding (tested: up to 10 µCi/mL)

Ac-AGWLECYAEFGHCYNFGTGGGK-NH2 (disulfide 6-13 (inferred); also: fluorescein on C-terminal Lys in FP only) [SEQ ID NO:267]
VEGF-induced KDR phosphorylation, HUVEC immunoblot (KDR on HUVECs [9]): ≥ 50 % inhibition at 10 µM

Ac-AGWIECYHPDGICYHFGTGGGK-NH2 (disulfide 6-13 (inferred); also: fluorescein on C-terminal Lys in FP only) [SEQ ID NO:269]
VEGF-induced KDR phosphorylation, HUVEC immunoblot (KDR on HUVECs [9]): ≥ 50 % inhibition at 10 µM
